Substitutions are numbered along the chain they refer to. Read-outs that look alike come from different tables or passages of the source. One block for each binder: values may come before it.
Key:
[1] = target: T1, recombinant monomeric human ICOS Fc(kih) Avi tag (human, UniProt P0DOX5 223-449 = IgG part, biotin on the Avi tag in the ligand-blocking and the SPR competition assays); test: SPR (Biacore T200, 25 C), antibody captured on anti-rabbit Fc, ICOS Fc(kih) 7.5-600 nM as analyte, 1:1 Langmuir fit
T1 construct: also called recombinant human ICOS; biotinylated human ICOS Fc(kih)
Description: All SPR experiments were performed on a Biacore T200 at 25° C. with HBS-EP as running buffer (0.01 M HEPES pH 7.4, 0.15 M NaCl, 3 mM EDTA, 0.005% Surfactant P20, Biacore, Freiburg/Germany).
Setup 1: Anti-rabbit Fc antibody (Jackson ImmunoResearch, Cambridgeshire/UK) was directly coupled on a CM5 chip at pH 4.5 using the standard amine coupling kit (Biacore, Freiburg/Germany). The immobilization level was approximately 9000 RU. […] The dissociation was monitored for 720 seconds. Bulk refractive index differences were corrected for by subtracting the response obtained on reference flow cell.

[2] = target: T1, recombinant monomeric human ICOS …; test: SPR competition on human ICOS Fc(kih); second injection 100 nM; competitor (row): Molecule 20
Description: (§1) Immobilization levels up to 600 resonance units (RU) were used. […] Bulk refractive index differences were corrected for by subtracting the response obtained on reference flow cell.
(§2) The SPR experiments were performed on a Biacore T200 at 25° C. with HBS-EP as running buffer (0.01 M HEPES pH 7.4, 0.15 M NaCl, 3 mM EDTA, 0.005% Surfactant P20, Biacore, Freiburg/Germany).

[3] = target: T2, human ICOS (human, UniProt Q9Y6W8 21-199); test: flow cytometry, ICOS+ CHO cells, 120 nM anti-ICOS IgG, no ICOSL
T2 construct: The cell that carries it is named under assay; also called huICOS; CD278
T2 sequence: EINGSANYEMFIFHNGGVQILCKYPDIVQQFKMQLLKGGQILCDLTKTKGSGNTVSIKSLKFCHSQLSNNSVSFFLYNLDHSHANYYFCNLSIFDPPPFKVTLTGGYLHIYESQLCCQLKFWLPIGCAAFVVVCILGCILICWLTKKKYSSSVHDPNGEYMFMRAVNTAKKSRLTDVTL
Description: (§3) Briefly, cells were harvested, counted, checked for viability and re-suspended at 1 million cells per ml in FACS buffer (PBS with 0.1% BSA). […] Cells were washed again twice with cold PBS 0.1% BSA and then re-incubated and fixed for 20 min at 4° C. in the dark, using 75 μl of 1% PFA in FACS buffer per well. Fluorescence was analyzed by FACS using a FACS Fortessa (Software FACS Diva. Data was analyzed using GraphPadPrism 7.

[4] = target: T2, human ICOS; test: flow cytometry, SR cells
Description: (§4) Briefly, suspension cells were harvested, counted, checked for viability and re-suspended at 1 million cells per ml in FACS buffer (PBS with 0.1% BSA). […] The staining was fixed for 20 min at 4° C. in the dark, using 75 μl of 1% PFA in FACS buffer per well.
(§5) In addition, binding of the above molecules to human SR cells (ATCC® CRL-2262) was performed as described above apart from the following modifications: SR cells were re-suspended at 2 million cells per ml in FACS buffer (BD).
(§6) Fluorescence was analyzed by FACS using a FACS Fortessa (Software FACS Diva). Binding curves and EC50 values were obtained using GraphPadPrism 7.

[5] = target: T2, human ICOS; test: flow cytometry on CHO cells stably expressing human ICOS, PE-labelled secondary antibody, median fluorescence intensity (MFI)
Description: as §4, §6

[6] = target: T2, human ICOS; test: flow cytometry, CHO cells expressing human ICOS
Description: as §4, §6

[7] = target: T2, human ICOS; test: cell-based or functional assay
[8] = target: T1, recombinant monomeric human ICOS …; test: SPR competition on human ICOS Fc(kih); second injection 100 nM; competitor (row): Molecule 14
Description: as §1, §2

[9] = target: T2, human ICOS; test: flow cytometry, ICOS+ CHO cells, 120 nM anti-ICOS IgG pre-bound, then ICOSL (competitor) 120 nM
Description: as §3

[10] = target: T1, recombinant monomeric human ICOS …; test: SPR competition on human ICOS Fc(kih); second injection 100 nM; competitor (row): Molecule 18
Description: as §1, §2

[11] = target: T2, human ICOS; test: flow cytometry on SR cells expressing human ICOS, PE-labelled secondary antibody, MFI
Description: as §4, §5, §6

[12] = target: T2, human ICOS; test: flow cytometry, MFI(ICOSL+anti-ICOS)/MFI(anti-ICOS only)*100 at 120 nM; competitor ICOSL
Description: as §3

[13] = target: T3, human FAP (human, UniProt Q12884 1-760); test: flow cytometry, NIH/3T3-huFAP clone 19 cells
T3 construct: also called hu FAP
Description: as §4
(§7) Fluorescence was analyzed by FACS using a FACS Fortessa (Software FACS Diva). Binding curves and EC₅₀ values were obtained using GraphPadPrism 7.

[14] = target: T4, cynomolgus ICOS (cynomolgus, UniProt Q9Y6W8 21-195 (human entry)); test: flow cytometry, activated cynomolgus PBMCs, CD4+ subset
T4 chain: T2 sequence with T54K, H81R, A129T, L136F, S152T, D176G, V177T, L179P
Description: as §4
(§8) Briefly, cynomolgus PBMCs were activated for 48 hours using Dynabeads™ Human T-Activator CD3/CD28 (Thermo Fischer #11131D) according to manufacturer instruction and stored in RPMI1640 medium containing 10% FCS and 1% Glutamax (Gibco 35050061) at 37° C., in a humidified incubator until subsequent binding experiment was performed, as described above.

[15] = target: T4, cynomolgus ICOS; test: flow cytometry, activated cynomolgus PBMCs, CD8+ subset
Description: as §4, §8

[16] = target: T2, human ICOS; test: flow cytometry, CHO cells expressing human ICOS; remark: listed apart in the source
Description: as §4, §7

[17] = target: T1, recombinant monomeric human ICOS …; test: SPR competition on human ICOS Fc(kih); second injection 100 nM; competitor (row): Molecule 8
Description: as §1, §2

[18] = target: T3, human FAP; test: flow cytometry, NIH/3T3-huFAP clone 19 cells; remark: listed apart in the source
[19] = target: T2, human ICOS; test: flow cytometry, SR cells; remark: listed apart in the source
[20] = target: T2, human ICOS; test: flow cytometry on SR cells expressing human ICOS, geometric MFI

B1: Molecule 8 (rbIgG of 1167) (antibody, V domains shown)
VH: EVRLLESGGGLVQPGGSLRLSCAASGFTFNTYAVHWVRQAPGKGLEWVSGIGGSGVRTYYADSVKGRLTISRDNSKNTLYLQMNSLRAEDTAIYFCAKDIYVADFTGYAFDIWGQGTMVTVSS
VL: DIQMTQSPSSVSASVGDRVTITCRASQGINNFLAWYQQKPGKAPKLLIYDASSLQSGVPSRFAGSGSGTDFTLTISSLQPEDFATYYCQQYNFYPLTFGGGTMVEIKR
notes: Rabbit IgG format, from transgenic rabbit; also called ICOS (1167); clone 1167
Kd [1]: 76000 pM
koff [1]: 0.0061 s⁻¹
kon [1]: 81000 M⁻¹ s⁻¹
t1/2 [1]: 0.0317 h
binding of the second injection (0 = no binding; 1 = binding) [2]: 0
MFI (A488), IgG only [3]: 7800 MFI
EC50 [4]: 1.13 pM
EC50 (read off the curve) [5]: ~700 pM
EC50 [6]: 0.69 pM
EC50 of activation of Jurkat-NFAT reporter cell line (luminescence) [7]: 130 pM
binding of the second injection (0 = no binding; 1 = binding) [8]: 0
MFI (A488), IgG + ICOSL [9]: 7660 MFI
binding of the second injection (0 = no binding; 1 = binding) [10]: 1
EC50 (read off the curve) [11]: ~1000 pM
Relative Binding (%) [12]: 98.2%

B2: Molecule 19, bispecific 2+1 anti-ICOS (1138)/anti-FAP (4B9) huIgG1 P329GLALA kih (bispecific antibody)
heavy 1: QSLEESGGDLVKPGASLTLTCTASGFDLSSYYYMSWVRQAPGKGLEWIASIYADIYGGTTHYASWAKGRFTISKTSSTTVTLQMTSLTAADTATYFCAREDGSRYGGSGYYNLWGPGTLVTVSSASTKGPSVFPLAPSSKSTSGGTAALGCLVKDYFPEPVTVSWNSGALTSGVHTFPAVLQSSGLYSLSSVVTVPSSSLGTQTYICNVNHKPSNTKVDKKVEPKSCDKTHTCPPCPAPEAAGGPSVFLFPPKPKDTLMISRTPEVTCVVVDVSHEDPEVKFNWYVDGVEVHNAKTKPREEQYNSTYRVVSVLTVLHQDWLNGKEYKCKVSNKALGAPIEKTISKAKGQPREPQVCTLPPSRDELTKNQVSLSCAVKGFYPSDIAVEWESNGQPENNYKTTPPVLDSDGSFFLVSKLTVDKSRWQQGNVFSCSVMHEALHNHYTQKSLSLSPGGGGGSGGGGSGGGGSGGGGSEIVLTQSPGTLSLSPGERATLSCRASQSVTSSYLAWYQQKPGQAPRLLINVGSRRATGIPDRFSGSGSGTDFTLTISRLEPEDFAVYYCQQGIMLPPTFGQGTKVEIK
heavy 2: not shown
light: ALVMTQTPSSVSAAVGGTVTINCQASQNIYSNLAWYQQKPGQPPKLLIYAASYLTSGVSSRFKGSGAGTQFTLTISGVESADAATYYCQQGHTTDNIDNAFGGGTEVVVKRTVAAPSVFIFPPSDEQLKSGTASVVCLLNNFYPREAKVQWKVDNALQSGNSQESVTEQDSKDSTYSLSSTLTLSKADYEKHKVYACEVTHQGLSSPVTKSFNRGEC
EC50 [13]: 6160 pM
EC50 [14]: 13500 pM
EC50 [15]: 14000 pM
EC50 [16]: 5440 pM

Continued, values first:

Kd [1]: 100 pM
koff [1]: 2.3e-05 s⁻¹
kon [1]: 170000 M⁻¹ s⁻¹
t1/2 [1]: 8.3 h
MFI (A488), IgG only [3]: 6320 MFI
EC50 [4]: 0.4 pM
EC50 (read off the curve) [5]: ~300 pM
EC50 [6]: 0.3 pM
binding of the second injection (0 = no binding; 1 = binding) [17]: 0
EC50 of activation of Jurkat-NFAT reporter cell line (luminescence) [7]: 20 pM
binding of the second injection (0 = no binding; 1 = binding) [8]: 0
MFI (A488), IgG + ICOSL [9]: 6340 MFI
binding of the second injection (0 = no binding; 1 = binding) [10]: 1
EC50 (read off the curve) [11]: ~400 pM
Relative Binding (%) [12]: 100%
B3: Molecule 20 (rbIgG of 1143) (antibody, V domains shown)
VH: QSLEESGGDLVKPGASLTLTCKASGFDFSSAYDMCWVRQAPGKGLEWIGCVYYGDGITYYATWAKGRFTISKTSSTTVPLQMTSLTAADTATYFCARGAFLGSSYYLSLWGQGTLVTVSS
VL: AIDMTQTPASVEAAVGGTVTINCQASENIYNWLAWYQQKPGQPPKLLIYDASKLASGVPSRFSASGSGTQFTLTISAVECADAATYYCQQAYTYGNIDNAFGGGTEVVVSG
notes: Rabbit IgG format; also called ICOS (1143); clone 1143

EC50 [18]: 3.24 pM
EC50 [19]: 1.17 pM
EC50 [13]: 4680 pM
EC50 [14]: 6530 pM
EC50 (read off the curve) [20]: ~1000 pM
EC50 [15]: 8340 pM
EC50 [16]: 2190 pM
B4: Molecule 22, bispecific 2+1 anti-ICOS (1143v2)/anti-FAP (4B9) huIgG1 P329GLALA kih (bispecific antibody)
heavy 1: QSLEESGGDLVKPGASLTLTCKASGFDFSSAYDMSWVRQAPGKGLEWIGVIYYGDGITYYATSVKGRFTISKTSSTTVPLQMTSLTAADTATYFCARGAFLGSSYYLSLWGQGTLVTVSSASTKGPSVFPLAPSSKSTSGGTAALGCLVKDYFPEPVTVSWNSGALTSGVHTFPAVLQSSGLYSLSSVVTVPSSSLGTQTYICNVNHKPSNTKVDKKVEPKSCDKTHTCPPCPAPEAAGGPSVFLFPPKPKDTLMISRTPEVTCVVVDVSHEDPEVKFNWYVDGVEVHNAKTKPREEQYNSTYRVVSVLTVLHQDWLNGKEYKCKVSNKALGAPIEKTISKAKGQPREPQVCTLPPSRDELTKNQVSLSCAVKGFYPSDIAVEWESNGQPENNYKTTPPVLDSDGSFFLVSKLTVDKSRWQQGNVFSCSVMHEALHNHYTQKSLSLSPGGGGGSGGGGSGGGGSGGGGSEIVLTQSPGTLSLSPGERATLSCRASQSVTSSYLAWYQQKPGQAPRLLINVGSRRATGIPDRFSGSGSGTDFTLTISRLEPEDFAVYYCQQGIMLPPTFGQGTKVEIK
heavy 2: not shown
light: AIDMTQTPASVEAAVGGTVTINCQASENIYNWLAWYQQKPGQPPKLLIYDASKLASGVPSRFSASGSGTQFTLTISAVESADAATYYCQQAYTYGNIDNAFGGGTEVVVSRTVAAPSVFIFPPSDEQLKSGTASVVCLLNNFYPREAKVQWKVDNALQSGNSQESVTEQDSKDSTYSLSSTLTLSKADYEKHKVYACEVTHQGLSSPVTKSFNRGEC
